The values that follow come from patent US20250171512A1.

Chain of human FGFR1c together with human beta-Klotho (KLB), stably expressed on CHO Flp-In cells (human) (P11362 22-822, chain 1 of 2): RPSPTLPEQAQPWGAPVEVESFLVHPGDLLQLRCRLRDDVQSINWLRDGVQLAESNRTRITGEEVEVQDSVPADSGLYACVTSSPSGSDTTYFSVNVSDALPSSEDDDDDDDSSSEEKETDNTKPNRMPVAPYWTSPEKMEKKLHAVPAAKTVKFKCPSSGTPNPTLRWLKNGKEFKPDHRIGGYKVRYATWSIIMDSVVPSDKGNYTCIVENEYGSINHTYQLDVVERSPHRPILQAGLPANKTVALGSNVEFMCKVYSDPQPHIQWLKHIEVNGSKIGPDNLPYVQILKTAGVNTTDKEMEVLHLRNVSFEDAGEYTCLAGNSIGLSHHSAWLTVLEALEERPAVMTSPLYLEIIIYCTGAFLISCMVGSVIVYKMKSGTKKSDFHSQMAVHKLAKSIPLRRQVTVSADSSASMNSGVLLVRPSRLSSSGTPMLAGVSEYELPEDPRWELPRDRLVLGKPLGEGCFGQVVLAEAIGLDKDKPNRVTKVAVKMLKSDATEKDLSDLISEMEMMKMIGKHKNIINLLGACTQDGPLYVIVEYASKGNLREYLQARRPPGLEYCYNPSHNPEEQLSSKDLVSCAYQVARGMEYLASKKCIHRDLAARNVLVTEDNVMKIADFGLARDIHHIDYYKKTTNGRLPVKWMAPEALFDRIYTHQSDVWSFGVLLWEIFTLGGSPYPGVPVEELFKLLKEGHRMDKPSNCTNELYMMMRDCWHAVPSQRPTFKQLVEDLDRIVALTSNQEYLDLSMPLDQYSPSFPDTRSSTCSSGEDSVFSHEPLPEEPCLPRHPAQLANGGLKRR
Chain of human FGFR1c together with human beta-Klotho (KLB), stably expressed on CHO Flp-In cells (human) (Q86Z14 whole entry, chain 2 of 2, further chain): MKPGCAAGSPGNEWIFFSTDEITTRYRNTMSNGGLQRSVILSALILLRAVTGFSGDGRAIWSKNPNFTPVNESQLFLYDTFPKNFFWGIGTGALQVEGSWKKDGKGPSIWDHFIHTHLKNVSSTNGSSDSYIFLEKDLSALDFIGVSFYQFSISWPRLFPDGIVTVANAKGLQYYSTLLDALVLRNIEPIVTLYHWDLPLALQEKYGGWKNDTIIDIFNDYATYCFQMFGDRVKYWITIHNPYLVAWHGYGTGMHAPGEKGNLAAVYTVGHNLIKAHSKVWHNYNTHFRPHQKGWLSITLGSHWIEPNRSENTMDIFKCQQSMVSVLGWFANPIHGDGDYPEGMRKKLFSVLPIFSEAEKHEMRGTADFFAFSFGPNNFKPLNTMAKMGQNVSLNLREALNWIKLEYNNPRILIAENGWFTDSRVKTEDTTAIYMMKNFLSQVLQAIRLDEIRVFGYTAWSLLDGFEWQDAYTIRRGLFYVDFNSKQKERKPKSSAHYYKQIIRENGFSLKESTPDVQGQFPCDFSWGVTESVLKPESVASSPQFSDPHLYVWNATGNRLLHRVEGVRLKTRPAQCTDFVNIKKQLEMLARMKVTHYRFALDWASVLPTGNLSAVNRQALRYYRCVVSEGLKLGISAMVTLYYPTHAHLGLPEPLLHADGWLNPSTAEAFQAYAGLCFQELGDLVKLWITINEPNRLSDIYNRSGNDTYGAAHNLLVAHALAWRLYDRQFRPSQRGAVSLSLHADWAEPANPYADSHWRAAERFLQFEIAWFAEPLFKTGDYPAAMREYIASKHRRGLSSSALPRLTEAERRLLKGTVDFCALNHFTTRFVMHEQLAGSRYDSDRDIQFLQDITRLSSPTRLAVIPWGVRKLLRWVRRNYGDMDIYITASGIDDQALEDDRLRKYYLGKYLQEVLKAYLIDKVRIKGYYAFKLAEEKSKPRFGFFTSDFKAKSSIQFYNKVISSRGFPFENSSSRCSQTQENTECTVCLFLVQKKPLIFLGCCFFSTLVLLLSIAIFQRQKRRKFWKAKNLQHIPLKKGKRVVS
Chain of FGF21 D187 deleted (SEQ ID NO: 57) (Q9NSA1 other isoform, or with tags, fused parts or gaps): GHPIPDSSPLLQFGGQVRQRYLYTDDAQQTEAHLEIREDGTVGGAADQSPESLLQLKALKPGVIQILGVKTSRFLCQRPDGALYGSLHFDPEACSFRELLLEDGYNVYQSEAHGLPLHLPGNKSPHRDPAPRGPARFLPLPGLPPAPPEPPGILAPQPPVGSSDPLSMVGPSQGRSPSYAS
Chain of FGF21, human (SEQ ID NO: 2), with N-terminal tag (Q9NSA1 29-209 L174P): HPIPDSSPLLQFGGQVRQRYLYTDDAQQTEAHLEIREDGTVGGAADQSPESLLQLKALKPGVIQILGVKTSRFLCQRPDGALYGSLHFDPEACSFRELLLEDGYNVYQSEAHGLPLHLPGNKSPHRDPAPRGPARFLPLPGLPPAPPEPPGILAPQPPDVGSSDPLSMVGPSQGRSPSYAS
Chain of FGF21 M196 deleted, S201 deleted (SEQ ID NO: 70) (Q9NSA1 other isoform, or with tags, fused parts or gaps): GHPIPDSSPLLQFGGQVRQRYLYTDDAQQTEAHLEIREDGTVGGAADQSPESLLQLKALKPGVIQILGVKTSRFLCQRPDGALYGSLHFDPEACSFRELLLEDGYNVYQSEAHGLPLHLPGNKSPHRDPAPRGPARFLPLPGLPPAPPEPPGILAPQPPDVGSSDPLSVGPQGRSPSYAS
Chain of FGF21 S200 deleted (SEQ ID NO: 61) (Q9NSA1 other isoform, or with tags, fused parts or gaps): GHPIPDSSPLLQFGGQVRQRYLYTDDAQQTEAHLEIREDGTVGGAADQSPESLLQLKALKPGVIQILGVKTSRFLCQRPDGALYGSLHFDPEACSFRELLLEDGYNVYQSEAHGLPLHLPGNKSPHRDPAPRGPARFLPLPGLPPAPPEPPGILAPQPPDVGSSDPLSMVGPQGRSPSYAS

The experiment has as its target human FGFR1c together with human beta-Klotho (KLB), stably expressed on CHO Flp-In cells (human) (UniProt P11362). The experiment in a line: cell-based or functional assay.
“FGF21 Q55C, P147C, G198Y (SEQ ID NO: 45) (from UniProt Q9NSA1 29-209) (ligand)”: the pERK ICW EC50 was 3.6 nmol/L.
In turn, “FGF21 Q104C, H140C (SEQ ID NO: 108) (from UniProt Q9NSA1 29-209) (ligand)” displayed a pERK ICW EC50 of 21.9 nmol/L.
“FGF21 L80C, V96C (SEQ ID NO: 119) (from UniProt Q9NSA1 29-209) (ligand)”: the pERK ICW EC50 is 17.9 nmol/L.
The value for “FGF21 G198K (SEQ ID NO: 19) (from UniProt Q9NSA1 29-209) (ligand)” was 1.81 nmol/L; that for “FGF21 A59C, A73C (SEQ ID NO: 105) (from UniProt Q9NSA1 29-209) (ligand)” was 19.2 nmol/L.
The value for “FGF21 P199Q, Q201P (SEQ ID NO: 10) (from UniProt Q9NSA1 29-209) (ligand)” was 1.76 nmol/L; that for “FGF21 G198D (SEQ ID NO: 17) (from UniProt Q9NSA1 29-209) (ligand)” was 4.94 nmol/L; that for “FGF21 Q55C, G148C, N149-R159 deleted and replaced by GGSGGS (SEQ ID NO: 95) (from UniProt Q9NSA1 29-209) (ligand)” was 7.27 nmol/L.
Under “FGF21 D187 deleted (SEQ ID NO: 57) (from UniProt Q9NSA1 29-209) (ligand)” stands 86.1 nmol/L; under “FGF21 S137C, H140C (SEQ ID NO: 84) (from UniProt Q9NSA1 29-209) (ligand)”, 3.87 nmol/L.
Consider “FGF21 S76C, S79C (SEQ ID NO: 85) (from UniProt Q9NSA1 29-209) (ligand)”, for which the pERK ICW EC50 worked out at 1.44 nmol/L.
Regarding “FGF21 G198Y (SEQ ID NO: 20) (from UniProt Q9NSA1 29-209) (ligand)”, the pERK ICW EC50 turned out to be 0.68 nmol/L.
The value for “FGF21 Q55C, G148C (SEQ ID NO: 93) (from UniProt Q9NSA1 29-209) (ligand)” was 0.48 nmol/L; that for “FGF21 M196 deleted, S201 deleted (SEQ ID NO: 70) (from UniProt Q9NSA1 29-209) (ligand)” was 165 nmol/L.
Under “FGF21 G198P, P199G (SEQ ID NO: 24) (from UniProt Q9NSA1 29-209) (ligand)” stands 10.8 nmol/L.
The value for “FGF21 Q55C, N149C, G198Y (SEQ ID NO: 47) (from UniProt Q9NSA1 29-209) (ligand)” was 0.58 nmol/L; that for “FGF21 S200 deleted (SEQ ID NO: 61) (from UniProt Q9NSA1 29-209) (ligand)” was 1.17 nmol/L.
In turn, “FGF21 V69C, L110C (SEQ ID NO: 113) (from UniProt Q9NSA1 29-209) (ligand)” returned a pERK ICW EC50 of 11.7 nmol/L.
“FGF21 P77C, K97C (SEQ ID NO: 117) (from UniProt Q9NSA1 29-209) (ligand)” registered a pERK ICW EC50 of 8.76 nmol/L.
Under “FGF21 G198 deleted, P199F (SEQ ID NO: 31) (from UniProt Q9NSA1 29-209) (ligand)” stands 2.1 nmol/L; under “FGF21 E62C, A72C (SEQ ID NO: 106) (from UniProt Q9NSA1 29-209) (ligand)”, 2.03 nmol/L; under “FGF21, human (SEQ ID NO: 2), with N-terminal tag (from UniProt Q9NSA1 29-209) (ligand)”, 1.03 nmol/L.
Under “FGF21 E62C, S79C (SEQ ID NO: 102) (from UniProt Q9NSA1 29-209) (ligand)” stands 0.55 nmol/L; under “FGF21 A72C, S79C (SEQ ID NO: 87) (from UniProt Q9NSA1 29-209) (ligand)”, 11.8 nmol/L.
Under “FGF21 A59C, G71C, P199 deleted (SEQ ID NO: 36) (from UniProt Q9NSA1 29-209) (ligand)” stands 1.16 nmol/L; under “FGF21 G108C, L142C, G198Y (SEQ ID NO: 41) (from UniProt Q9NSA1 29-209) (ligand)”, 0.55 nmol/L.
